Results as given in patent publication US20180155451A1 (published 2018).

T1: FcγRIIa H (human, UniProt P12318 34-217)
T1 construct: extracellular domain; Soluble His-tagged extracellular domain expressed in FreeStyle293 cells; also called FcγRIIa type H; FcgRIIa H; not shown: His tag attached to the C terminus
T1 sequence (looked up): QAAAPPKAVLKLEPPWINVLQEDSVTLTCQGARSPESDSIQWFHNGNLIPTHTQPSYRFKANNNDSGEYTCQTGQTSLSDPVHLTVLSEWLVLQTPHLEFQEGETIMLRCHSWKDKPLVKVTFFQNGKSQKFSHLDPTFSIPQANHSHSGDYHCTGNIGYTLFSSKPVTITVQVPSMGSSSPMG

T2: FcγRIIb (human, UniProt P31994 43-217)
T2 construct: extracellular domain; Soluble His-tagged extracellular domain expressed in FreeStyle293 cells; also called FcgRIIb; 2b; not shown: His tag attached to the C terminus
T2 sequence (looked up): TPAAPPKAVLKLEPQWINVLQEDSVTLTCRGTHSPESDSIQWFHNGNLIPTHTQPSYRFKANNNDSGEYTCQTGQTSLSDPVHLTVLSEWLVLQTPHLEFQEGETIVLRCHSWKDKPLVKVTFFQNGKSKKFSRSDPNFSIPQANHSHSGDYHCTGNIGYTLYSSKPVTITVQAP

T3: FcγRIIb (human, UniProt P31994 43-217)
T3 construct: extracellular domain; also called FcgRIIb; 2b; not shown: His tag at the C terminus
T3 sequence (looked up): T2 sequence (looked up)

B1: GpH7-A5/GpH7-B3 variant S337_15Y/GpL16-k0 (antibody, human IgG1, kappa)
heavy 1: not shown
heavy 2: not shown
light: DIVMTQSPLSLPVTPGEPASISCQASESLVHSNRNTYLHWYLQKPGQSPQLLIYKVSNRFSGVPDRFSGSGSGTDFTLKISRVEAEDVGVYYCSQNTHVPPTFGQGTKVEIERTVAAPSVFIFPPSDEQLKSGTASVVCLLNNFYPREAKVQWKVDNALQSGNSQESVTEQDSKDSTYSLSSTLTLSKADYEKHKVYACEVTHQGLSSPVTKSFNRGEC
notes: Heterodimerized anti-glypican-3 IgG1; mutation in the GpH7-B3 H chain only; also called He Ab
B2: GpH7-A5/GpH7-B3 variant K334_20W/GpL16-k0 (antibody, human IgG1, kappa)
heavy 1: not shown
heavy 2: not shown
light: B1 light
notes: as for B1
B3: GpH7-A5/GpH7-B3 variant P331_03V/GpL16-k0 (antibody, human IgG1, kappa)
heavy 1: not shown
heavy 2: not shown
light: B1 light
notes: heterodimerized IgG1; alteration in the GpH7-B3 H chain only; also called He Ab
B4: GpH7-A5/GpH7-B3 variant L328_04F/GpL16-k0 (antibody, human IgG1, kappa)
heavy 1: not shown
heavy 2: not shown
light: B1 light
notes: as for B3
B5: GpH7-A5/GpH7-B3 variant N325_20W/GpL16-k0 (antibody, human IgG1, kappa)
heavy 1: not shown
heavy 2: not shown
light: B1 light
notes: as for B3
B6: GpH7-A5/GpH7-B3 variant N325_13S/GpL16-k0 (antibody, human IgG1, kappa)
heavy 1: not shown
heavy 2: not shown
light: B1 light
notes: as for B3
B7: GpH7-A5/GpH7-B3 variant L328_13S/GpL16-k0 (antibody, human IgG1, kappa)
heavy 1: not shown
heavy 2: not shown
light: B1 light
notes: as for B3
B8: GpH7-A5/GpH7-B3 variant L328_06M/GpL16-k0 (antibody, human IgG1, kappa)
heavy 1: not shown
heavy 2: not shown
light: B1 light
notes: as for B3
B9: GpH7-A5/GpH7-B3 variant L328_02A/GpL16-k0 (antibody, human IgG1, kappa)
heavy 1: not shown
heavy 2: not shown
light: B1 light
notes: as for B3
B10: GpH7-A5/GpH7-B3 variant L328_07I/GpL16-k0 (antibody, human IgG1, kappa)
heavy 1: not shown
heavy 2: not shown
light: B1 light
notes: as for B3
B11: GpH7-A5/GpH7-B3 variant A327_09D/GpL16-k0 (antibody, human IgG1, kappa)
heavy 1: not shown
heavy 2: not shown
light: B1 light
notes: as for B3
B12: GpH7-A5/GpH7-B3 variant N325_06M/GpL16-k0 (antibody, human IgG1, kappa)
heavy 1: not shown
heavy 2: not shown
light: B1 light
notes: as for B3
B13: GpH7-A5/GpH7-B3 variant I332_09D/GpL16-k0 (antibody, human IgG1, kappa)
heavy 1: not shown
heavy 2: not shown
light: B1 light
notes: as for B3
B14: GpH7-A5/GpH7-B3 variant L328_09D/GpL16-k0 (antibody, human IgG1, kappa)
heavy 1: not shown
heavy 2: not shown
light: B1 light
notes: as for B3

Biological target: T1, FcγRIIa H
Experiment: SPR (Biacore), captured antibody, FcγR analyte; relative to GpH7-A5/GpH7-B3/GpL16-k0 = 100
Protocol: (§1) The heterodimerized antibodies He Abs in which one of the H chains was introduced with an alteration were assayed for their binding activities to each activating FcγR and inhibitory FcγR according to the method described in Example 4. […] The activating FcγRs in FIGS. 26, 27, 28, and 29 are FcγRIa, FcγRIIa (R), FcγRIIa (H), and FcγRIIIa, respectively.
(§2) Analysis of interaction between objective antibody and the FcγR was carried out using Biacore T100 (GE Healthcare). HBS-EP+ (GE Healthcare) was used as the running buffer, and the measurement temperature was set to 25° C. Chips produced by immobilizing the antigen peptide by the amine coupling method to a Series S Sencor Chip CM5 (GE Healthcare), or alternatively, chips produced by allowing preliminarily biotinylated antigen peptides to interact with and immobilize onto a Series S Sensor Chip SA (certified) (GE Healthcare) were used. Antibodies of interest were captured onto an antigen peptide-immobilized chip, and allowed to interact to each FcγR diluted with running buffer. To regenerate and repeatedly use the chip, the antibodies captured on the chip were washed off by reacting 10 mM glycine-HCl, pH 1.5.

He/Con_2aH	Binder
99.4 relative (control = 100)	B1
97.6 relative (control = 100)	B2

Biological target: T2, FcγRIIb
Experiment: as above
Protocol: as §1, §2

He/Con_2b	Binder
100 relative (control = 100)	B1
104 relative (control = 100)	B2

Biological target: T4, FcγRIa (human, UniProt P12314 16-292)
T4 construct: extracellular domain; also called FcgRI; 1a; not shown: His tag at the C terminus
T4 sequence (P12314 16-292): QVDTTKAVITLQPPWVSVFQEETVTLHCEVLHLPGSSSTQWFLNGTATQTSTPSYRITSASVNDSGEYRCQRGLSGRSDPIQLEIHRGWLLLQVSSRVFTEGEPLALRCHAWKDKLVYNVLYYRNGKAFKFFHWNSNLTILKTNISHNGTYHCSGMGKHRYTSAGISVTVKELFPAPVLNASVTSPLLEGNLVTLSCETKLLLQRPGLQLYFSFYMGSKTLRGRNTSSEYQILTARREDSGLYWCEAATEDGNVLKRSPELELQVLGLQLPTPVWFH
Experiment: SPR (Biacore), antibody captured, FcγR as analyte; binding as % of GpH7-A5/GpH7-B3/GpL16-k0

He/Con_1a	Binder
92 % of control	B3
97.9 % of control	B4
93.8 % of control	B5
96.8 % of control	B6
99 % of control	B7
98.7 % of control	B8
98.5 % of control	B9
99.4 % of control	B10

Biological target: T3, FcγRIIb
Experiment: as above

He/Con_2b	Binder
119 % of control	B3
219 % of control	B4
169 % of control	B5
177 % of control	B6
149 % of control	B7
142 % of control	B8
144 % of control	B9
160 % of control	B10

Biological target: T4, FcγRIa
Experiment: SPR (Biacore); He/Con_1a (FcγRIa) divided by He/Con_2b (FcγRIIb)

Ia/IIb He_1a/2b [ratio]	Binder
0.6	B11
0.45	B12
0.78	B3
0.45	B4
0.64	B13
0.56	B5
0.51	B14
0.55	B6
0.66	B7
0.7	B8
0.68	B9
0.62	B10

Biological target: T4, FcγRIa
Experiment: SPR (Biacore), antibody captured, FcγR as analyte; binding as % of GpH7-A5/GpH7-B3/GpL16-k0
Remark: another data set of the same source

He/Con_1a	Binder
103 % of control	B11
97.6 % of control	B12
92 % of control	B3
97.9 % of control	B4
93.4 % of control	B13
93.8 % of control	B5
102 % of control	B14
96.8 % of control	B6
99 % of control	B7
98.7 % of control	B8
98.5 % of control	B9
99.4 % of control	B10

Biological target: T3, FcγRIIb
Experiment: as above
Remark: another data set of the same source

He/Con_2b	Binder
172 % of control	B11
217 % of control	B12
119 % of control	B3
219 % of control	B4
147 % of control	B13
169 % of control	B5
199 % of control	B14
177 % of control	B6
149 % of control	B7
142 % of control	B8
144 % of control	B9
160 % of control	B10
